In patent publication EP4585616A1, “ANTIBODY CAPABLE OF SPECIFICALLY BINDING TO ROR1, […] THEREOF, AND PREPARATION METHOD THEREFOR AND USE THEREOF” (Hefei Institutes of Physical Science, Chinese Academy of …, priority 2022, dated 2024):
Where a chain is given by its changes, count along the chain named.

B1: mAb007c (antibody, V domains shown)
VH: EVQLQQSGPELVKPGASVKMSCKASGYTFTDYNMHWVKQSHGKSLEWIGYINPNNGGTSYNQKFKGKATLTVNKSSSTAYMELRSLTSDDSAVYYCARRGYGSGYAMDYWGQGTSVTVSS
VL: DVLMTQTPLSLPVSLGDQASISCRSSQSIVHTNGNTYLEWYLQNPGQSPKLLIYKVFNRFSGVPDRFSGSGSGTDFTLKISRVEAEDLGVYYCFQGSLFPYTFGGGTKLEIK
notes: Human-mouse chimeric
B2: mAb008c (antibody, V domains shown)
VH: B1 VH with G26E, S59T, T114A
VL: B1 VL with M4L, Q18R, R24T, F57S
notes: Human-mouse chimeric
B3: mAb005c (antibody, V domains shown)
VH: EVQLVESGGGLVKPGGSLKLSCAASGFTFNSYAMSWVRQTPEKRLEWVATISDGGSYTYYPDNEKGRFTISRDNAKNNLYLQMSHLKSEDTAIYYCVRGGYYYNLYAMDYWGQGTSVTVSS
VL: DIVLTQSPASLAVSLGQRAIISCKASQSVSFPGTSLMHWYQQKPGQQPKLLIYRASNLEAGVPTRFSGSGSRTDFTLNIHPVEEDDTATYYCQQSREYPWTFGGGTQLEIK
notes: Human-mouse chimeric
B4: mAb001c (antibody, V domains shown)
VH: EVRLQQSGPVLVKPGASVKMSCKASGYTFTDYNLHWVKQSHRQSLEWIGYINPNHDGTSYNQKFQGKATLTVDRSSSTAYMEFRSLTSEDSAVYYCARRVRTGTGLDDWGQGTTLTVSS
VL: B1 VL with T7S, Q27H, S28N, N44K, F57S, D75Y, K79T, L98R
notes: Human-mouse chimeric; also called human-mouse chimeric antibody mAb001c
B5: UC-961 (antibody, V domains shown)
VH: QVQLQESGPGLVKPSQTLSLTCTVSGYAFTAYNIHWVRQAPGQGLEWMGSFDPYDGGSSYNQKFKDRLTISKDTSKNQVVLTMTNMDPVDTATYYCARGWYYFDYWGHGTLVTVSS
VL: DIVMTQTPLSLPVTPGEPASISCRASKSISKYLAWYQQKPGQAPRLLIYSGSTLQSGIPPRFSGSGYGTDFTLTINNIESEDAAYYFCQQHDESPYTFGEGTKVEIK
notes: Control antibody of US20150232569A1, made with human IgG1 heavy chain constant region and Kappa chain constant region
B6: mAb004c (antibody, V domains shown)
VH: EVQLVESGGGLVQPKGSLKLSCAASGFTFNTYAMHWVRQAPGKGLEWVARIRSKSSNFATYYADSVRDRFTISRDDSQSMLYLQMNNLKTEDTAMYYCVRGYGPSYFSLDYWGQGTSVTVSS
VL: DVVMTQTPLSLPVSLGDQASISCRSSQSLVHSNGNTYLHWYLQKPGQSPKLLIYKVSNRFSGVPDRFSGSGSGTDFTLKINRVEAEDLGVYFCSQSTHAIYTFGGGTKLEIK
notes: Human-mouse chimeric
B7: mAb001c-vcMMAE: antibody conjugate of chimeric antibody mAb001c coupled with vcMMAE, average DAR about 3.81 (conjugate)
VH: B4 VH
VL: B1 VL with T7S, Q27H, S28N, N44K, F57S, D75Y, K79T, L98R

target: T1, human ROR1 on the surface of tumor cells (human, UniProt Q01973 30-937); test: FACS, NCI-H226 cells; details: not given
T1 construct: whole, on cells; also called ROR1 on the cell surface; tumor cell ROR1
T1 sequence (Q01973 30-937): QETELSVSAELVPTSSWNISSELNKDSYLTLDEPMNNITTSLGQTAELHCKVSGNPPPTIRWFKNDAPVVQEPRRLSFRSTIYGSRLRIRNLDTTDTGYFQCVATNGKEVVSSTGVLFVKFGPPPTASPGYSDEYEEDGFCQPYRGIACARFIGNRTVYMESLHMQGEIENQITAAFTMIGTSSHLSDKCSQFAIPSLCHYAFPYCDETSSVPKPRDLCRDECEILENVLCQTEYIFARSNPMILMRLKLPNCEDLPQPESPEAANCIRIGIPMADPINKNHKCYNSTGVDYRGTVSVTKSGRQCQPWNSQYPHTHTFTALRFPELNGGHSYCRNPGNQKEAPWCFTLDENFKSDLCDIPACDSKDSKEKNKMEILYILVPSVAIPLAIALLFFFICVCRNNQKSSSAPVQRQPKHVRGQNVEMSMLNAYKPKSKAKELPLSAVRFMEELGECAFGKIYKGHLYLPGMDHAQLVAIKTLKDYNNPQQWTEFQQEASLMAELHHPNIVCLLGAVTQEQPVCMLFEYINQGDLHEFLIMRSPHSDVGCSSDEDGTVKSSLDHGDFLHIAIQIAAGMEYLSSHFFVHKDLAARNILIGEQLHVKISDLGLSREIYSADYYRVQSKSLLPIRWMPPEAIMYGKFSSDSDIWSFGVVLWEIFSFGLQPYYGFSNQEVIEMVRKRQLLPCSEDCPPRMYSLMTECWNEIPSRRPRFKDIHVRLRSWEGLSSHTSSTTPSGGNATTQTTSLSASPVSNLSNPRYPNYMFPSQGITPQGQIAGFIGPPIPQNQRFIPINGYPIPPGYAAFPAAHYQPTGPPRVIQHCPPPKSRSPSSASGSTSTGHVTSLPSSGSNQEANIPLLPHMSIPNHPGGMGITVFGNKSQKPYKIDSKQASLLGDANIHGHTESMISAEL

Point of comparison: B1, EC50 0.28 nM. Against it:
- B2 — within 1.5-fold, 0.36 nM

target: T1, human ROR1 on the surface of tumor cells; test: FACS, MDA-MB-231 cells; details: not given

Point of comparison: B1, EC50 0.25 nM. Against it:
- B2 — 3.1-fold higher, 0.78 nM

target: T1, human ROR1 on the surface of tumor cells; test: FACS, NCI-H226 cells; details: not given; remark: another data set of the same source

Point of comparison: B4, EC50 0.11 nM. Against it:
- B3 — 1.6-fold higher, 0.18 nM
- B5 — within 1.5-fold, 0.13 nM
- B6 — 4.2-fold higher, 0.46 nM

target: T1, human ROR1 on the surface of tumor cells; test: FACS, MDA-MB-231 cells; details: not given; remark: another data set of the same source

Point of comparison: B5, EC50 0.21 nM. Against it:
- B3 — within 1.5-fold, 0.24 nM
- B4 — within 1.5-fold, 0.15 nM
- B6 — 1.9-fold higher, 0.4 nM

target: T2, Extracellular domain of human ROR1 protein (ROR1-ECD) (human, UniProt Q01973 30-403); test: ELISA, plate-coated ROR1-ECD; details: not given
T2 construct: Expressed in HEK293T cells; also called human ROR1-ECD; purified human ROR1 protein extracellular segment
T2 sequence (Q01973 other isoform, or with tags, fused parts or gaps): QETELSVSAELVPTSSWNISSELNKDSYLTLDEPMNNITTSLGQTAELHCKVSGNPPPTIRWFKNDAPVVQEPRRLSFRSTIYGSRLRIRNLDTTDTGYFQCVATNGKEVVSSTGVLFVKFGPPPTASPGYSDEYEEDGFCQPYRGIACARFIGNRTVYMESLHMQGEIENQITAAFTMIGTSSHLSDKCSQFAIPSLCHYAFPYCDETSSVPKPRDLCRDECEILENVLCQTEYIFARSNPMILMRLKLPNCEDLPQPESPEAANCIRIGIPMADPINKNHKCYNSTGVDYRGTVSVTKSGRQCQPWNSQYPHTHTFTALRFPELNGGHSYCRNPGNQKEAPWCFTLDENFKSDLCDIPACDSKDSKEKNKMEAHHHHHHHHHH

Point of comparison: B2, EC50 0.02 nM. Against it:
- B1 — 1.7-fold lower, 0.012 nM

system: MDA-MB-231 tumors; test: In vivo antitumor activity, subcutaneous tumor model; set-up: species or system immunodeficient mice (NCG or Balb/c-nude); details: 5 mg/kg once a week, tail vein, 3 weeks, result in words
Experimental: (§1) 200 µL of cell matrix gel suspension containing 5×10^6 MDA-MB-231 and HT-29 were inoculated subcutaneously on the back of immunodeficient mice (NCG or Balb/c-nude). When the tumor volume grew to 100 to 200 mm^3, the mice were randomly divided into groups (n=10) according to the tumor volume and nude mouse weight. The mice were dosed at doses of 5 mg/kg and 2.5 mg/kg once a week through the tail vein for a total of 3 weeks, as well as a group with PBS set as a negative control. The tumor volume and nude mouse weight were measured and recorded 2 to 3 times a week to plot the tumor growth curve. The formula for calculating tumor volume (V) is: V=1/2×a×b^2, where a and b represent the length and width of the tumor, respectively.
as §1, with “5 × 10^6 MDA-MB-231, 1 × 10^7 HCC1187, 1 × 10^7 PA-1, or 5 × 10^6 NCI-N87 was” for “5×10^6 MDA-MB-231 and HT-29 were”, “300 mm3,” for “200 mm^3,”, “(n=8 to 10)” for “(n=10)”, “The formula for calculating tumor volume (V) is: V=1/2×a×b^2, where a and b represent the length and width of the tumor, respectively.” left out

With B7 the “inhibition of the growth of MDA-MB-231 tumors” value was “completely inhibit”.

system: HT-29 tumors; test: as above; set-up: species or system immunodeficient mice (NCG or Balb/c-nude); details: 5 mg/kg and 2.5 mg/kg once a week, tail vein, 3 weeks, result in words
Experimental: as §1

In the case of B7, the “inhibition of the growth of HT-29 tumors” value is reported as “significantly and dose-dependently inhibited”.

target: T2, Extracellular domain of human ROR1 …; test: ELISA, plate-coated ROR1-ECD; details: not given; remark: another data set of the same source

Point of comparison: B3, EC50 0.009 nM. Against it:
- B4 — within 1.5-fold, 0.012 nM
- B5 — within 1.5-fold, 0.013 nM
- B6 — within 1.5-fold, 0.012 nM

target: T3, ROR1 extracellular segment sequence (including transmembrane) on CHO cells (human, UniProt Q01973 30-472); test: FACS, CHO-ROR1 (extracellular segment) cells; details: not given
T3 construct: Cloned into pCDNA3.1 and transfected into CHO cells; also called CHO-ROR1 (extracellular segment); CHO-ROR1
T3 sequence (Q01973 30-472 limits assumed): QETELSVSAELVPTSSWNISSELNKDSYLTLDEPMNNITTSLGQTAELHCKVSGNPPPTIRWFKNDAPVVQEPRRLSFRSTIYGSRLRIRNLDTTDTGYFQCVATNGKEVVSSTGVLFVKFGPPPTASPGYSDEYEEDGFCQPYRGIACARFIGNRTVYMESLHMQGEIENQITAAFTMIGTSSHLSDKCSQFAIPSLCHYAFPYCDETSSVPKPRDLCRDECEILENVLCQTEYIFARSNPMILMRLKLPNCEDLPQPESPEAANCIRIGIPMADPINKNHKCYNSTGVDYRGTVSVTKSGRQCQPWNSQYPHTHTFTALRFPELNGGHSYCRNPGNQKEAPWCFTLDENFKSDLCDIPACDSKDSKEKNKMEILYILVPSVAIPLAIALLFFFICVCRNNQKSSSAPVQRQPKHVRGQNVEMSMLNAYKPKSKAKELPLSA

Point of comparison: B2, EC50 0.7 nM. Against it:
- B1 — within 1.5-fold, 0.54 nM

target: T3, ROR1 extracellular segment sequence …; test: FACS, CHO-ROR1 (extracellular segment) cells; details: not given; remark: another data set of the same source

Point of comparison: B3, EC50 0.57 nM. Against it:
- B4 — 1.8-fold lower, 0.32 nM
- B5 — within 1.5-fold, 0.74 nM
- B6 — 1.8-fold lower, 0.32 nM

target: T4, ROR1 extracellular segment with Ig-like domain removed on CHO cells (human, UniProt Q01973 30-472, limits assumed); test: FACS, CHO-ROR1 (with Ig-like domain removed) cells; details: not given
T4 construct: Transfected into CHO cells; also called CHO-ROR1 (with Ig-like domain removed)
T4 sequence (Q01973 other isoform, or with tags, fused parts or gaps limits assumed): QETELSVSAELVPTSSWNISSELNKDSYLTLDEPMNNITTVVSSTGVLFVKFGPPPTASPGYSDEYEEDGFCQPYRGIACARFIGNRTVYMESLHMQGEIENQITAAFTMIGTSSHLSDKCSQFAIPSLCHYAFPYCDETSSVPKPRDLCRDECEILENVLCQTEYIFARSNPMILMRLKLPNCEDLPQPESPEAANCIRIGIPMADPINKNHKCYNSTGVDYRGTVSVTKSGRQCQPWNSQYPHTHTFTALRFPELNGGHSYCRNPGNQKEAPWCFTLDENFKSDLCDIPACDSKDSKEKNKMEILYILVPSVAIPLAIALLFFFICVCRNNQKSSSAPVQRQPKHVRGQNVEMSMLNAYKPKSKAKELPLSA

Point of comparison: B6, EC50 0.35 nM. Against it:
- B4 — within 1.5-fold, 0.36 nM
- B1 — within 1.5-fold, 0.36 nM
- B2 — within 1.5-fold, 0.37 nM

target: T5, ROR1 extracellular segment with Kringle domain removed on CHO cells (human, UniProt Q01973 30-472, limits assumed); test: FACS, CHO-ROR1 (with Kringle domain removed) cells; details: not given
T5 construct: Transfected into CHO cells; also called CHO-ROR1 (with Kringle domain removed)
T5 sequence (Q01973 other isoform, or with tags, fused parts or gaps limits assumed): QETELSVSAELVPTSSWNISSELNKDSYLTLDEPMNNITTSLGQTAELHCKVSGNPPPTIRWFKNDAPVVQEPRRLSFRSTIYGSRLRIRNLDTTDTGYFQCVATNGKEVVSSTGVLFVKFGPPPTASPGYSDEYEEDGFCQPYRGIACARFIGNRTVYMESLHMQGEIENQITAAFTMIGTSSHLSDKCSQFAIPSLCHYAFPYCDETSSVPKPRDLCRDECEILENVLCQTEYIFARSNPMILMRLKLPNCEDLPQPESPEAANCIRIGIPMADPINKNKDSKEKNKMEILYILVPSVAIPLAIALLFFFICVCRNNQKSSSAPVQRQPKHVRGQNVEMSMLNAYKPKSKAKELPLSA

Point of comparison: B3, EC50 0.91 nM. Against it:
- B4 — 2.4-fold lower, 0.38 nM
- B1 — within 1.5-fold, 1.03 nM
- B2 — 1.6-fold higher, 1.5 nM
- B5 — within 1.5-fold, 0.79 nM
- B6 — within 1.5-fold, 0.84 nM

target: T6, ROR1 extracellular segment with Frizzled domain removed on CHO cells (human, UniProt Q01973 30-472, limits assumed); test: FACS, CHO-ROR1 (with Frizzled domain removed) cells; details: not given
T6 construct: Transfected into CHO cells; also called CHO-ROR1 (with Frizzled domain removed)
T6 sequence (Q01973 other isoform, or with tags, fused parts or gaps limits assumed): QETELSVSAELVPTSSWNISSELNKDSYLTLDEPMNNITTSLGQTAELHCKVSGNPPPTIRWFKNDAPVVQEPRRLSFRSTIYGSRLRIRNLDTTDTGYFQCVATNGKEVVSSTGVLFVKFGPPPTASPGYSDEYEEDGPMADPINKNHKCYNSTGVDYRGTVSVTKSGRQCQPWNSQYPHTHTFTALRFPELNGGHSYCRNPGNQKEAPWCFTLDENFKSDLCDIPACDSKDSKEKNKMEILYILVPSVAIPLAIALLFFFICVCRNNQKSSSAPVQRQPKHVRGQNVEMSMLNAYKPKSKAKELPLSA

Point of comparison: B4, EC50 0.85 nM. Against it:
- B3 — within 1.5-fold, 1.02 nM
- B1 — within 1.5-fold, 1.25 nM
- B2 — 2-fold higher, 1.67 nM
- B5 — within 1.5-fold, 1.11 nM
- B6 — 1.6-fold higher, 1.37 nM

target: T3, ROR1 extracellular segment sequence …; test: FACS, ROR1 transferred onto CHO cell surface (summing up of Example 9); details: not given

B3 and B4 cannot be ordered by EC50: < 2 nM for the first, < 2 nM for the second.

B1 and B2 cannot be ordered by EC50: < 2 nM for the first, < 2 nM for the second.

For B6, the EC50 was < 2 nM.
